Read-outs that look alike come from different tables or passages of the source. Where no end group is shown, it is not given here. [ ]: non-standard residue; d: D form. Gly(1-amidinopiperidin-4-yl) = N=C(N)N1CCC([C@H](N)C(=O)O)CC1; Cha = N[C@@H](CC1CCCCC1)C(=O)O
T1: wild-type human PTHR (human, UniProt Q03431 27-593)
T1 construct: whole, on cells; also called PTHR-WT; intact PTHR
T1 sequence (looked up): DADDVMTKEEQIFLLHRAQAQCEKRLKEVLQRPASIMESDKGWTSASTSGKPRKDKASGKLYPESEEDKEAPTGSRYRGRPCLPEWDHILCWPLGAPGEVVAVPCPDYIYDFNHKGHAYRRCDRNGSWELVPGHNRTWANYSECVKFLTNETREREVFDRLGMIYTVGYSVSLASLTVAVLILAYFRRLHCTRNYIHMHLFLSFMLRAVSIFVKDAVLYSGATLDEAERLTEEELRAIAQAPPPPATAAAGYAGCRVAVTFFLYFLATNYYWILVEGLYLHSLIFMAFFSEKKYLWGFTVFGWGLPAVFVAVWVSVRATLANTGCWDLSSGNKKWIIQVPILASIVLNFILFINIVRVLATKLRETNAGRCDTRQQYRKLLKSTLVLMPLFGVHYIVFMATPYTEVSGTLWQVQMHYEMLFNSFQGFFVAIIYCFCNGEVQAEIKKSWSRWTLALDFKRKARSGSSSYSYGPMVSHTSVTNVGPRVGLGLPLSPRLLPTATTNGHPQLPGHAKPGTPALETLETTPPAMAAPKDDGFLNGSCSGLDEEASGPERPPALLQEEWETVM

B1: [Ala^1,Arg^19]hPTH(1-31)NH2 Arg^19→Cha (peptide)
peptide: AVSEIQLMHNLGKHLNSM[Cha]RVEWLRKKLQDV-NH2
modifications: N-terminus assumed
SMILES: CC[C@H](C)[C@H](NC(=O)[C@H](CCC(=O)O)NC(=O)[C@H](CO)NC(=O)[C@@H](NC(=O)[C@H](C)N)C(C)C)C(=O)N[C@@H](CCC(N)=O)C(=O)N[C@@H](CC(C)C)C(=O)N[C@@H](CCSC)C(=O)N[C@@H](Cc1c[nH]cn1)C(=O)N[C@@H](CC(N)=O)C(=O)N[C@@H](CC(C)C)C(=O)NCC(=O)N[C@@H](CCCCN)C(=O)N[C@@H](Cc1c[nH]cn1)C(=O)N[C@@H](CC(C)C)C(=O)N[C@@H](CC(N)=O)C(=O)N[C@@H](CO)C(=O)N[C@@H](CCSC)C(=O)N[C@@H](CC1CCCCC1)C(=O)N[C@@H](CCCNC(=N)N)C(=O)N[C@H](C(=O)N[C@@H](CCC(=O)O)C(=O)N[C@@H](Cc1c[nH]c2ccccc12)C(=O)N[C@@H](CC(C)C)C(=O)N[C@@H](CCCNC(=N)N)C(=O)N[C@@H](CCCCN)C(=O)N[C@@H](CCCCN)C(=O)N[C@@H](CC(C)C)C(=O)N[C@@H](CCC(N)=O)C(=O)N[C@@H](CC(=O)O)C(=O)N[C@H](C(N)=O)C(C)C)C(C)C
B2: [Ala^1,Arg^19]hPTH(1-31)NH2 Ser^17→Cha (peptide)
peptide: AVSEIQLMHNLGKHLN[Cha]MRRVEWLRKKLQDV-NH2
modifications: N-terminus assumed
SMILES: CC[C@H](C)[C@H](NC(=O)[C@H](CCC(=O)O)NC(=O)[C@H](CO)NC(=O)[C@@H](NC(=O)[C@H](C)N)C(C)C)C(=O)N[C@@H](CCC(N)=O)C(=O)N[C@@H](CC(C)C)C(=O)N[C@@H](CCSC)C(=O)N[C@@H](Cc1c[nH]cn1)C(=O)N[C@@H](CC(N)=O)C(=O)N[C@@H](CC(C)C)C(=O)NCC(=O)N[C@@H](CCCCN)C(=O)N[C@@H](Cc1c[nH]cn1)C(=O)N[C@@H](CC(C)C)C(=O)N[C@@H](CC(N)=O)C(=O)N[C@@H](CC1CCCCC1)C(=O)N[C@@H](CCSC)C(=O)N[C@@H](CCCNC(=N)N)C(=O)N[C@@H](CCCNC(=N)N)C(=O)N[C@H](C(=O)N[C@@H](CCC(=O)O)C(=O)N[C@@H](Cc1c[nH]c2ccccc12)C(=O)N[C@@H](CC(C)C)C(=O)N[C@@H](CCCNC(=N)N)C(=O)N[C@@H](CCCCN)C(=O)N[C@@H](CCCCN)C(=O)N[C@@H](CC(C)C)C(=O)N[C@@H](CCC(N)=O)C(=O)N[C@@H](CC(=O)O)C(=O)N[C@H](C(N)=O)C(C)C)C(C)C
B3: [Ala^1,Arg^19]hPTH(1-31)NH2 Met^18→Cha (peptide)
peptide: AVSEIQLMHNLGKHLNS[Cha]RRVEWLRKKLQDV-NH2
modifications: N-terminus assumed
SMILES: CC[C@H](C)[C@H](NC(=O)[C@H](CCC(=O)O)NC(=O)[C@H](CO)NC(=O)[C@@H](NC(=O)[C@H](C)N)C(C)C)C(=O)N[C@@H](CCC(N)=O)C(=O)N[C@@H](CC(C)C)C(=O)N[C@@H](CCSC)C(=O)N[C@@H](Cc1c[nH]cn1)C(=O)N[C@@H](CC(N)=O)C(=O)N[C@@H](CC(C)C)C(=O)NCC(=O)N[C@@H](CCCCN)C(=O)N[C@@H](Cc1c[nH]cn1)C(=O)N[C@@H](CC(C)C)C(=O)N[C@@H](CC(N)=O)C(=O)N[C@@H](CO)C(=O)N[C@@H](CC1CCCCC1)C(=O)N[C@@H](CCCNC(=N)N)C(=O)N[C@@H](CCCNC(=N)N)C(=O)N[C@H](C(=O)N[C@@H](CCC(=O)O)C(=O)N[C@@H](Cc1c[nH]c2ccccc12)C(=O)N[C@@H](CC(C)C)C(=O)N[C@@H](CCCNC(=N)N)C(=O)N[C@@H](CCCCN)C(=O)N[C@@H](CCCCN)C(=O)N[C@@H](CC(C)C)C(=O)N[C@@H](CCC(N)=O)C(=O)N[C@@H](CC(=O)O)C(=O)N[C@H](C(N)=O)C(C)C)C(C)C
B4: PTH(1-31)NH2 Arg^20→PipGly (peptide)
peptide: SVSEIQLMHNLGKHLNSME[Gly(1-amidinopiperidin-4-yl)]VEWLRKKLQDV-NH2
modifications: N-terminus assumed
SMILES: CC[C@H](C)[C@H](NC(=O)[C@H](CCC(=O)O)NC(=O)[C@H](CO)NC(=O)[C@@H](NC(=O)[C@@H](N)CO)C(C)C)C(=O)N[C@@H](CCC(N)=O)C(=O)N[C@@H](CC(C)C)C(=O)N[C@@H](CCSC)C(=O)N[C@@H](Cc1c[nH]cn1)C(=O)N[C@@H](CC(N)=O)C(=O)N[C@@H](CC(C)C)C(=O)NCC(=O)N[C@@H](CCCCN)C(=O)N[C@@H](Cc1c[nH]cn1)C(=O)N[C@@H](CC(C)C)C(=O)N[C@@H](CC(N)=O)C(=O)N[C@@H](CO)C(=O)N[C@@H](CCSC)C(=O)N[C@@H](CCC(=O)O)C(=O)N[C@H](C(=O)N[C@H](C(=O)N[C@@H](CCC(=O)O)C(=O)N[C@@H](Cc1c[nH]c2ccccc12)C(=O)N[C@@H](CC(C)C)C(=O)N[C@@H](CCCNC(=N)N)C(=O)N[C@@H](CCCCN)C(=O)N[C@@H](CCCCN)C(=O)N[C@@H](CC(C)C)C(=O)N[C@@H](CCC(N)=O)C(=O)N[C@@H](CC(=O)O)C(=O)N[C@H](C(N)=O)C(C)C)C(C)C)C1CCN(C(=N)N)CC1

How the values were obtained:
wild-type human PTHR [1] = molecular target: T1, wild-type human PTHR; experiment: competition binding, HKRK-B7 cells, 125I-PTH(1-34) tracer
Procedure: (§1) Receptor binding—Binding to the wild-type human PTHR in intact HKRK-B7 cells and ROS 17/2.8 cells was assessed using ¹²⁵I-PTH(1-34) as a tracer radioligand, as described (Shimizu, M., (2001) Endocrinology 142:3068-3074). In brief, the cells in 24-well plates (about 500,000 cells per well) were incubated in binding buffer containing radioligand (about 100,000 cpm per well) with or without unlabeled peptide ligand (3×10⁻⁹ to 1×10⁻⁵ M) for four hours at 15° C. The binding mixture was then removed by aspiration, the cells were rinsed three times with binding buffer, lysed in 1 M NaOH, and the entire lysate was counted for gamma-irradiation in a gamma counter. Binding to PTHR-delNt in COS-7 cell membranes was assessed in 96-well, vacuum filtration plates (Multiscreen-Durapore HV, […], Millipore Corp., Millford, Mass.) using ¹²⁵I-[Aib^{1,3},M]PTH(1-15)NH₂ as a tracer radioligand, as described (Dean, T., (2006) Mol Endocrinol 20:931-942). In brief, cell membranes (20 μg/well) were incubated in membrane binding buffer containing radioligand (30,000 cpm/well) with or without unlabeled peptide ligand (3×10⁻⁹ to 1×10⁻⁵ M) for 90 minutes at 21° C. The plates were then subject to rapid vacuum filtration, the filters were washed once with buffer, detached from the plate and counted for gamma-irradiation in a gamma counter. Non-specific binding was defined as the binding observed in the presence of 1×10⁻⁶ M PTH(1-31)NH₂ for HKRK-B7 and ROS 17/2.8 cells, and 1×10⁻⁶ M [Aib^{1,3},M]PTH(1-15)NH₂ for PTHR-delNt. Specifically bound radioactivity was calculated as a percentage of the radioactivity specifically bound in the absence of competing ligand.
Cyclohexylalanine and glutamate substitutions were introduced into [Ala¹,Arg¹⁹]hPTH(1-31)NH₂. The helical residue values were calculated from [θ]₂₂₂, the mean-residue elipticities observed in the CD spectra at 222 nm. Competition binding studies were performed in intact HKRK-B7 cells stably transfected with the hPTHR using ¹²⁵I-[Nle^{8,21},Tyr³⁴]rPTH(1-34)NH ₂ tracer radioligand, and in membranes prepared from COS-7 cells transiently transfected with hPTHR-delNt and a negative-dominant Gαs using ¹²⁵I-[Aib^{1,3},Nle⁸,Gln¹⁰,Har¹¹,Ala¹²,Trp¹⁴,Tyr¹⁵]rPTH(1-15)NH₂ tracer radioligand. Binding values (nM) are means (+/−s.e.m.) of data from the number of experiments indicated (n).

PTHR-delNt (human) = PTHR-delNt (human) (UniProt Q03431); experiment: competition binding, COS-7 membranes, 125I-[Aib1,3,M]PTH(1-15) tracer
wild-type human PTHR [2] = molecular target: T1, wild-type human PTHR; experiment: competition binding, HKRK-B7 cells, 125I-PTH(1-34) tracer; remark: listed apart in the source
wild-type human PTHR [3] = molecular target: T1, wild-type human PTHR; experiment: as above; remark: listed apart in the source
Procedure: as §1
Alanine-Scan of the PTH(17-31) domain—Each residue in the (17-31) region of PTH(1-31)NH₂ was individually replaced with alanine and the effects of the substitutions on binding to the intact human PTHR stably expressed in HKRK-B7 cells was assessed. Competition binding studies were performed using whole cells and ¹²⁵I-PTH(1-34) (¹²⁵I-[Nle^{8,21},Tyr³⁴]ratPTH(1-34)NH₂) as a tracer radioligand.

Row | Binder | IC50 (wild-type human PTHR [1]) | IC50 (PTHR-delNt (human)) | fold change in binding affinity vs [Ala^1,Arg^19]PTH(1-31)NH2 (PTHR-delNt (human)) | fold change in binding affinity vs [Ala^1,Arg^19]PTH(1-31)NH2 (wild-type human PTHR [2]) | IC50 (wild-type human PTHR [3]) | fold difference of IC50 from PTH(1-31)NH2 (PTHR-delNt (human)) | fold reduction in binding affinity vs PTH(1-31)NH2 (wild-type human PTHR [2]) | fold reduction in binding affinity vs [Ala^1,Arg^19]PTH(1-31)NH2 (PTHR-delNt (human)) | fold reduction in binding affinity vs [Ala^1,Arg^19]PTH(1-31)NH2 (wild-type human PTHR [2])
1 | B1 | 233 nM | 780 nM | < 3 fold | ≤ 6 fold |  |  |  |  | 
2 | B2 | 112 nM | 179 nM | < 3 fold | ≤ 6 fold |  |  |  |  | 
3 | B3 | 87 nM | 408 nM | < 3 fold | ≤ 6 fold |  |  |  |  | 
4 | B4 |  | 6600 nM |  |  | 14100 nM | < 4 fold | ~200 fold |  | 
5 | AVSEIQLMHNLGKHLNSMRRVEWLEKKLQDV-NH2 [[Ala^1,Arg^19]hPTH(1-31)NH2 Arg^25→Glu] | 189 nM | 1630 nM |  |  |  |  |  | 4 fold | 
6 | AVSEIQLMHNLGKHLNSMRRVEWLRKELQDV-NH2 [[Ala^1,Arg^19]hPTH(1-31)NH2 Lys^27→Glu] | 156 nM | 1270 nM |  |  |  |  |  |  | 
7 | AVSEIQLMHNLGKHLNSMRREEWLRKKLQDV-NH2 [[Ala^1,Arg^19]hPTH(1-31)NH2 Val^21→Glu] | 447 nM | 1620 nM |  |  |  |  |  | 4 fold | 12 fold
8 | AVSEIQLMHNLGKHLNSMRRVEWLREKLQDV-NH2 [[Ala^1,Arg^19]hPTH(1-31)NH2 Lys^26→Glu] | 60 nM | 832 nM |  |  |  |  |  |  | 

— patent US20100081612A1 (GENERAL HOSPITAL, published 2010)
